This is an account of results in PMC11249637, “Interaction of the Atypical Tetracyclines Chelocardin and Amidochelocardin with Renal Drug Transporters” (ACS Pharmacology & Translational Science, 2024).

For series [1], the system named is organic anion transporters. Details: method as in PMID 27499331. As to conditions: cited from earlier work.
Series [2] has as its system p-gp. Details: method as in PMID 27499331. As to conditions: cited from earlier work.
Substrate in series [3]: CC(=O)C1=C(O)[C@@H](N)[C@H]2Cc3c(c(O)c4c(O)c(C)ccc4c3C)C(=O)[C@@]2(O)C1=O
Description: Three-point uptake (substrate assessment) in mOat1-overexpressing HEK293 cells. In kind it is in vitro ADME, mouse. As to conditions: other: Michaelis–Menten fit, 1, 10 and 100 μM; 30.0 °C. The protocol: (§1) This is important to gain a better understanding of the underlying mechanisms of secretion into urine. Therefore, we assessed the amount of compound taken up by the vector and transporter cells at three different concentrations (1, 10, and 100 μM for mOat1 and mOct1; 0.1, 1, and 10 μM for mOat3) and at two different incubation periods (1 and 5 min for mOat1 and mOct1; 5 and 10 min for mOat3).
(§2) The incubation buffer contained CHD and CDCHD in a final concentration of 1, 10, and 100 μM. After 1 and 5 min, the incubation was terminated. In addition, the probe inhibitor probenecid (100 μM) was added in one concentration to 10 μM CHD and CDCHD, respectively, and after 1 and 5 min, the incubation was stopped. Inhibition of mOat1-mediated ^3H-PAH (10 μM) uptake by 100 μM probenecid was performed as a control experiment. After 1 min, the incubation was terminated. All experiments were conducted in triplicate.
(§3) First, a calibration curve was prepared by spiking different concentrations of CHD and CDCHD into the cell matrix. Caffeine was used as an internal standard. In addition, quality control samples (QCs) were prepared for CHD and CDCHD in a cell matrix. The following extraction procedures were used: 300 μL of acetonitrile/water (1:1) is added to the cell pellet (sample or calibration/QC sample) for 15 min at 2000 rpm on an Eppendorf MixMate vortex mixer. 10 μL of this extracted sample is used for further analysis. 10 μL of the extracted cell sample is further extracted with 25 μL of a mixture of methanol/acetonitrile (2:1) containing 12.5 ng/mL caffeine as an internal standard (on ice) for 5 min at 2000 rpm on an Eppendorf MixMate vortex mixer. Then, samples were spun down at 15,870 × g for 10 min. Supernatants were transferred to standard HPLC glass vials. Samples were analyzed using an Agilent 1290 Infinity II HPLC system coupled to an AB Sciex QTrap6500plus mass spectrometer. LC conditions were as follows: column: Agilent Zorbax Eclipse Plus C18, 50 × 2.1 mm, 1.8 μm; temperature: 30°C; injection volume: 5 μL per sample; flow rate: 700 μL/min. Samples were run under the following conditions. Solvents: A: 100% water +0.1% formic acid; solvent B: 100% acetonitrile +0.1% formic acid. The gradient for CDCHD was as follows: 99% A at 0 min, 99% A until 0.1 min, 99–90% A from 0.1 to 1.0 min, 90–50% A from 1.0 to 2.4 min, 50–35% A from 2.4 to 2.7 min, 35–0% A from 2.7 until 4.5 min, 0% A until 5.5 min, 0–99% from 5.5 to 5.7 min, 99% A until 6.0 min. […]
(§4) For statistical testing of differences in uptake ratio or for the inhibitory effect, an ordinary one-way ANOVA test was performed using GraphPad Prism 9.5.1 software. […] Michaelis–Menten kinetics were determined using the Michaelis–Menten algorithm of GraphPad Prism 9.5.1 software. […]

Substrate in series [4]: Cc1ccc2c(C)c3c(c(O)c2c1O)C(=O)[C@@]1(O)C(=O)C(C(N)=O)=C(O)[C@@H](N)[C@H]1C3
Described as above. In kind it is in vitro ADME, mouse. As to conditions: other: Michaelis–Menten fit, 1, 10 and 100 μM; 30.0 °C. As for the experimental part:
as §1, §2, §3, §4

Substrate in series [5]: CC(=O)C1=C(O)[C@@H](N)[C@H]2Cc3c(c(O)c4c(O)c(C)ccc4c3C)C(=O)[C@@]2(O)C1=O
Description: Three-point uptake (substrate assessment) in mOct1-overexpressing HEK293 cells. In kind it is in vitro ADME, mouse. As to conditions: other: Michaelis–Menten fit, 1, 10 and 100 μM; 30.0 °C. The protocol: as §1
(§5) The incubation buffer contained CHD and CDCHD in a final concentration of 1, 10, and 100 μM. After 1 and 5 min, the incubation was terminated. In addition, the probe inhibitor decynium22 (50 μM) was added in one concentration to 10 μM CHD and CDCHD, respectively, and after 1 and 5 min, the incubation was stopped. Inhibition of mOct1-mediated ^3H-MPP (10 μM) uptake by 50 μM decynium22 was performed as a control experiment. After 1 min, the incubation was terminated. All experiments were conducted in triplicate.
(§6) First, a calibration curve was prepared by spiking different concentrations of CHD and CDCHD into the cell matrix. Caffeine was used as an internal standard. In addition, quality control samples (QCs) were prepared for CHD and CDCHD in a cell matrix. The following extraction procedures were used: 300 μL of acetonitrile/water (1:1) is added to the cell pellet (sample or calibration/QC sample) for 15 min at 2000 rpm on an Eppendorf MixMate vortex mixer. 10 μL of this extracted sample is used for further analysis. 10 μL of the extracted cell sample is further extracted with 25 μL of a mixture of methanol/acetonitrile (2:1) containing 12.5 ng/mL caffeine as an internal standard (on ice) for 5 min at 2000 rpm on an Eppendorf MixMate vortex mixer. […] Samples were analyzed using an Agilent 1290 Infinity II HPLC system coupled to an AB Sciex QTrap6500plus mass spectrometer. […]
as §4

Substrate in series [6]: Cc1ccc2c(C)c3c(c(O)c2c1O)C(=O)[C@@]1(O)C(=O)C(C(N)=O)=C(O)[C@@H](N)[C@H]1C3
The description is as above. It counts as in vitro ADME, mouse. As to conditions: other: Michaelis–Menten fit, 1, 10 and 100 μM; 30.0 °C. As for the experimental part: as §1, §5, §6, §4

Substrate in series [7]: CC(=O)C1=C(O)[C@@H](N)[C@H]2Cc3c(c(O)c4c(O)c(C)ccc4c3C)C(=O)[C@@]2(O)C1=O
The series can be described thus: Three-point uptake (substrate assessment) in mOat3-overexpressing HEK293 cells. It counts as in vitro ADME, mouse. As to conditions: other: Michaelis–Menten fit, 0.1, 1 and 10 μM; 30.0 °C. The protocol:
as §1
The incubation buffer contained CHD and CDCHD in a final concentration of 0.1, 1, and 10 μM. After 5 and 10 min, the incubation was terminated. In addition, the probe inhibitor probenecid (100 μM) was added in one concentration to 10 μM CHD and CDCHD, respectively, and after 5 and 10 min, the incubation was stopped. Inhibition of mOat3-mediated ^3H-ES (1 μM) uptake by 100 μM probenecid was performed as a control experiment. After 1 min, the incubation was terminated. […]
First, a calibration curve was prepared by spiking different concentrations of CHD and CDCHD into the cell matrix. […] Samples were analyzed using an Agilent 1290 Infinity II HPLC system coupled to an AB Sciex QTrap6500plus mass spectrometer. […]
as §4

“And” between values parts separate entries of the source, which are not always exact repeats. Equal entries are not always repeated.

Consider `CN(C)c1cc(CNCC(C)(C)C)c(O)c2c1C[C@H]1C[C@H]3[C@H](N(C)C)C(O)=C(C(N)=O)C(=O)[C@@]3(O)C(O)=C1C2=O` [omadacycline], for which the “substrate or inhibitor of organic anion transporters (in words)” value in series [1] was “neither a substrate nor an inhibitor”. Moreover, the Km in series [2] was approximately 82 µM.

B1: mOat1 (Mus musculus) (protein)
chain: MAFNDLLKQVGGVGRFQLIQVTMVVAPLLLMASHNTLQNFTAAIPAHHCRPPANANLSKDGGLEAWLPLDKQGRPESCLRFPFPHNGTEANGTGVTEPCLDGWVYDNSTFPSTIVTEWNLVCSHRAFRQLAQSLFMVGVLLGAMMFGYLADRLGRRKVLILNYLQTAVSGTCAAYAPNYTVYCIFRLLSGMSLASIAINCMTLNMEWMPIHTRAYVGTLIGYVYSLGQFLLAGIAYAVPHWRHLQLAVSVPFFVAFIYSWFFIESARWYSSSGRLDLTLRALQRVARINGKQEEGAKLSIEVLQTSLQKELTLNKGQASAMELLRCPTLRRLFLCLSMLWFATSFAYYGLVMDLQGFGVSMYLIQVIFGAVDLPAKFVCFLVINSMGRRPAQLASLLLAGICILVNGIIPRGHTIIRTSLAVLGKGCLASSFNCIFLYTGELYPTMIRQTGLGMGSTMARVGSIVSPLISMTAEFYPSIPLFIFGAVPVAASAVTALLPETLGQPLPDTVQDLKSRSRGKQKQQQLEQQKQMIPLQVSTQEKNGL
notes: expressed in transfected cells; host or cells: HEK293
For B1, in series [3], the Km came out at 65.08 µM and the Vmax was 82.38 nM/min. Besides, in series [4], the Michaelis constant (Km) is 39.64 µM and the Vmax was 11.48 nM/min.

B2: mOct1 (Mus musculus) (protein)
chain: MPTVDDVLEHVGEFGWFQKQAFLLLCLISASLAPIYVGIVFLGFTPDHHCRSPGVAELSQRCGWSPAEELNYTVPGLGSAGEASFLSQCMKYEVDWNQSTLDCVDPLSSLAANRSHLPLSPCEHGWVYDTPGSSIVTEFNLVCGDAWKVDLFQSCVNLGFFLGSLVVGYIADRFGRKLCLLVTTLVTSLSGVLTAVAPDYTSMLLFRLLQGMVSKGSWVSGYTLITEFVGSGYRRTTAILYQVAFTVGLVGLAGVAYAIPDWRWLQLAVSLPTFLFLLYYWFVPESPRWLLSQKRTTQAVRIMEQIAQKNRKVPPADLKMMCLEEDASERRSPSFADLFRTPSLRKHTLILMYLWFSCAVLYQGLIMHVGATGANLYLDFFYSSLVEFPAAFIILVTIDRIGRIYPIAASNLVAGAACLLMIFIPHELHWLNVTLACLGRMGATIVLQMVCLVNAELYPTFIRNLGMMVCSALCDLGGIFTPFMVFRLMEVWQALPLILFGVLGLSAGAVTLLLPETKGVALPETIEEAENLGRRKSKAKENTIYLQVQTGKSPHT
notes: as for B1
Regarding B2, the Km is 8.91 µM and 8.9 µM in series [5]; 55.2 µM in series [6]. In series [5], the Vmax came out at 49 nM/min.

B3: mOat3 (Mus musculus) (protein)
chain: MTFSEILDRVGSMGPFQYLHVTLLALPILGIANHNLLQIFTATTPDHHCRPPPNASLEPWVLPLGPNGKPEKCLRFVHLPNASLPNDTQGATEPCLDGWIYNSTRDTIVTEWDLVCGSNKLKEMAQSVFMAGILVGGPVFGELSDRFGRKPILTWSYLLLAASGSSAAFSPSLTVYMIFRFLCGCSISGISLSTIILNVEWVPTSTRAISSTTIGYCYTIGQFILPGLAYAVPQWRWLQLSVSAAFFIFSLLSWWVPESIRWLVLSGKFSKALKTLQRVATFNGKKEEGEKLTVEELKFNLQKDITSAKVKYGLSDLFRVSILRRVTFCLSLAWFATGFAYYSLAMGVEEFGVNIYILQIIFGGVDIPAKFITILSISYLGRRITQGFLLILAGVAILALIFVSSEMQLLRTALAVFGKGCLSGSFSCLFLYTSELYPTVLRQTGMGISNIWARVGSMIAPLVKITGELQPFIPNVIFGTMTLLGGSAAFFLLETLNRPLPETIEDIQDWYQQTKKTKQEPEAEKASQTIPLKTGGP
notes: as for B1
B3: in series [7], the Km was 6.1 µM and 6 µM; the Vmax was 26.42 nM/min.

The term Km denotes the substrate concentration at which the rate is half of its maximum. In general, Vmax refers to the rate approached at saturating substrate.
